The record followed here is article PMC13006735 (Research, 2026).

Changes are numbered by the printed parent chain. In names and notes the source's numbering stands.

As a reminder, the Kd is a measure of binding affinity in units of concentration.

For the assay, the target named is Sudan virus (SUDV) glycoprotein GP (Sudan ebolavirus, strain  for …, UniProt Q7T9D9). As to the kind of experiment: SPR. The note with it: both partners purified.

B1:  (antibody, V domains shown)
VH: EVQLVESGGGLVKPGGSLRLSCAASGFTFSNAWMSWVRQAPGKGLEWVGRIKSKTDGGTIDYAAPVKGRFTISRDDSKNTVYLQMTSLKTEDTAVYYCTTYTEDMRYFDWLLRGGETFDYWGQGTLVTVSS
VL: DIRLTQSPSSLSASVGDRVTITCRASQYISTYLNWYQQKPGKAPKLLIYAAYNLQSGVPSRFSGSRFGTDFSLTISSLQPEDFATYHCQQSYSTPGRYTFGQGTKVEIK
notes: also called H27Q/S52Y/G66R-LC variant
As to B1, binding was put at a Kd of 0.349 nM.

B2:  (antibody, V domains shown)
VH: B1 VH
VL: B1 VL with Q27H, A50Y, L54R, R66G
notes: also called A50Y/S52Y/L54R-LC variant
B2: the Kd is 0.248 nM.
